Experimental findings from patent publication US7341859B2, “ADH from Rhodococcus erythropolis” (Degussa AG, priority 2002, dated 2008) are described below.

The nature of data set [1]: Specific enzyme activity, standard test with p-Cl-acetophenone and NADH. It counts as biochemical. Here is the method: For elution, a falling ammonium sulfate gradient (1-0 M) was used; the desired enzyme then eluted at almost 0 M ammonium sulfate. […] The desired protein eluted on application of a falling ammonium sulfate gradient (1-0 M) at about 0.1 M ammonium sulfate. […] The supernatant liquid is the soluble crude extract, the sediment is the insoluble fraction. […] For expression, E. coli BL21 (DE3) was used as host. Recombinant cells were multiplied in the medium LBcam at 37° C. At an OD600 of 0.5, expression was induced with 25 μM IPTG, then the cells were multiplied for 12 h at 30° C. The cells were harvested after centrifuging for 15 min at 5000 rpm, the sediment was resuspended in 100 mM Kpi buffer (1.5 ml per 1 g of cells) and broken down using ultrasound.

The nature of data set [2]: pH optimum for the activity and stability of RE-ADH. The note with it: 4° C. and room temperature, 1 and 2 days, pH range 7.5-8.5, tris-HCl buffer 0.1 M. Type of data set: biochemical. The text has this:
The pH optimum for RE-ADH is at pH 6.0 for the reduction reaction (measured using p-Cl-acetophenone).

Data set [3] can be described thus: Activity of immobilised RE-ADH (Eupergit, Ni-NTA) with p-Cl-acetophenone, GC. Type of data set: biochemical. The note with it: for activity of the immobilised enzyme: 30° C. The method, then: Eupergit C® and Eupergit C 250L® were used in parallel batches, each being loaded with partially purified RE-ADH (literature reference relating to Eupergit immobilisation: E. Katchalski-Katzir, D. M. Kraemer, J. Mol. Catal. B: Enzym. 2000, 10, 157). The following was used for the test: • 1.5 mM p-Cl-acetophenone (dissolved in 0.1 M Na formate buffer, 0.05 M KPi buffer, pH 6.0) • 0.5 mM NAD • 30 mg immobilisate • 1 U/ml formate dehydrogenase (FDH)
These test materials were incubated at 30° C., a sample (100 μl) was taken from each mix after 0, 5, 10 and 15 min, this was extracted with 100 μl of chloroform and the chloroform phase was analysed for any phenylethanol formed using gas chromatography. The activity of the immobilised enzyme can be calculated from the kinetics of phenylethanol formation and values of 11.8 U/g support for Eupergit C® and 8 U/g of support for Eupergit C 250L® were obtained. With respect to the amount of enzyme used, this corresponded to coupling yields of 1% (Eupergit ®) and 0.8% (Eupergit C 250L®). • b) Immobilising on Ni-NTA
Recombinant E. coli JM105/pRE-ADH5 cells were broken down in an imidazole-containing buffer (50 mM NaH2PO4; 300 mM NaCl; 10 mM imidazole, pH 8.0) and a crude extract was prepared in the way described previously. For immobilisation, 1 ml of enzyme solution (13 U/ml RE-ADH, crude extract from the culture E. coli JM105pRE-ADH5; 8 mg/ml of protein) was added to 300 mg of Ni-NTA support material (Quiagen) and incubated for 10 min at 0° C. (ice bath). After centrifuging the suspension, 3 U/ml could still be detected as residual activity in the supernatant liquid as non-bonded enzyme. The immobilisate was reacted with p-Cl-acetophenone to detect the bonded activity.
For this purpose, the following were used per 1 ml of total volume:
3 mM p-Cl-acetophenone (substrate; dissolved in 100 mM Na formate, 50 mM Kpi buffer pH 6.0)
1 U formate dehydrogenase
The test batch was incubated in the same way as described above (immobilisation on Eupergit®), samples were taken and these were analysed using gas chromatography. […] Taking into account the fact that this test was performed with 30 mg of immobilisate and that 10 U RE-ADH had bonded to 300 mg of support material, 1 U was thus introduced in the test batch with the 30 mg. Since an activity of 0.21 U was reported, an immobilisation yield of 21% was obtained. The enantiomer purity (ee value) of the alcohol formed with the immobilisate was >99%.

Data set [4] in a line: Thermal stability of the ADH (activity after incubation). It counts as physicochemical. The method, then: The advantageous aspects and differences mentioned above with regard to improvement in the stability, as compared with previously known alcohol dehydrogenases from R. erythropolis are summarised in Table 5 and in FIG. 4. For better comparison, the relevant enzyme activity measured at 45° C. was set at 100%.
Here, for the very pure new alcohol hydrogenase, high thermal stabilities were produced over a wide temperature range extending up to 65° C. The stability values in this case are […]

Where only a bound is given, the exact number is not on record here.

B1: RE-ADH: alcohol dehydrogenase (ADH, RE-ADH) from Rhodococcus erythropolis, Seq. ID NO: 2, tetrameric; also with C-terminal His-Tag or immobilised (protein, listed as Rhodococcus erythropolis)
chain: MKAIQYTRIGAEPELTEIPKPEPGPGEVLLEVTAAGVCHSDDFIMSLPEEQYTYGLPLTLGHEGAGKVAAVGEGVEGLDIGTNVVVYGPWGCGNCWHCSQGLENYCSRAQELGINPPGLGAPGALAEFMIVDSPRHLVPIGDLDPVKTVPLTDAGLTPYHAIKRSLPKLRGGSYAVVIGTGGLGHVAIQLLRHLSAATVIALDVSADKLELATKVGAHEVVLSDKDAAENVRKITGSQGAALVLDFVGYQPTIDTAMAVAGVGSDVTIVGIGDGQAHAKVGFFQSPYEASVTVPYWGARNELIELIDLAHAGIFDIAVETFSLDNGAEAYRRLAAGTLSGRAVVVPGL
modifications: optional C-terminal His-tag or immobilisation
notes: ID NO: 2, tetrameric; also with C-terminal His-Tag or immobilised
Consider B1, for which, in data set [1] (crude extract from R. erythropolis), the “activity in the crude extract” value is given as “about 2.5 U/mg”. For the same molecule, in data set [1] (hexa-histidine group at the C-terminus, pRE-ADH5 in E. coli JM105), the enzyme activity amounted to 7 U/mg. Also, the “ADH activity in the crude extract” value is given as 6 U/mg in data set [1] (plasmid pKK223-3, E. coli JM 105, soluble fraction); “about 6 U/mg” in data set [1] (plasmid pKK223-3, E. coli JM 105, soluble fraction, listed as ADH according to the invention); 70 U/mg in data set [1] (vector pKA1, E. coli BL21 (DE3), cell-free crude extract); 70 U/mg in data set [1] (vector pKA1, E. coli BL21 (DE3), cell-free crude extract, listed as ADH); “about 70 U/mg” in data set [1] (vector pKA1, E. coli BL21 (DE3), cell-free crude extract, listed as ADH according to the invention). In data set [2], the deactivation on storage result was “no deactivation”. Besides, the “enantiomer purity (ee value) of the alcohol formed with the immobilisate” value in data set [3] (His-Tag enzyme on Ni-NTA) was over 99%. The “activity of the immobilisate” value in data set [3] (His-Tag enzyme on Ni-NTA, 30 mg immobilisate, 3 mM p-Cl-acetophenone) was found to be 0.21 U. Also, the “activity of the immobilised enzyme” value in data set [3] (immobilised on Eupergit C 250L) is reported as 8 U/g of support; in data set [3] (immobilised on Eupergit C), 11.8 U/g support. The “enzyme activity after incubation” value in data set [4] (10 min at 45° C.) is “(110 U/ml)”; in data set [4] (10 min at 50° C.), “(110 U/ml)”; in data set [4] (10 min at 55° C.) it was “(115 U/ml)”; in data set [4] (10 min at 60° C.), “(112 U/ml)”; in data set [4] (10 min at 65° C.), “(116 U/ml)”. Besides, the “relative enzyme activity after incubation” value stood at 95% in data set [4] (10 min at 45° C.); 95% in data set [4] (10 min at 50° C.); 99% in data set [4] (10 min at 55° C.); 97% in data set [4] (10 min at 60° C.); 100% in data set [4] (10 min at 65° C.).
